B1: TCR-34-1 (TCR)
alpha TRAV14/DV4 TRAJ6 CDR3: CAMREGSKGSYIPTF
beta TRBV28 TRBJ2-7 CDR3: CASRLNPGTVSYEQYF
B2: TCR-28 (TCR)
alpha TRAV19 TRAJ54 CDR3: CALSEAYQGAQKLVF
beta TRBV9 TRBJ2-5 CDR3: CASSVGGTVQETQYF
B3: TCR-32 (TCR)
alpha TRAV3 TRAJ8 CDR3: CAVRVYTGFQKLVF
beta TRBV9 TRBJ2-3 CDR3: CASSSNLQGADTQYF
B4: TCR-23-2 (TCR)
alpha TRAV6 TRAJ21 CDR3: CALWDFNKFYF
beta TRBV27 TRBJ2-5 CDR3: CASSPYSGGQGETQYF
B5: TCR-33 (TCR)
alpha TRAV19 TRAJ15 CDR3: CALSEAEAGTALIF
beta TRBV6-2 TRBJ1-2 CDR3: CASSYGSVYGYTF
B6: TCR-18 (TCR)
alpha TRAV6 TRAJ45 CDR3: CALDGSGGGADGLTF
beta TRBV7-8 TRBJ1-3 CDR3: CASSPGRSGNTIYF
B7: TCR-09 (TCR)
alpha TRAV29/DV5 TRAJ43 CDR3: CAASPEYNNNDMRF
beta TRBV18 TRBJ2-3 CDR3: CASSRTLGTSGNTQYF
B8: TCR-03 (TCR)
alpha TRAV38-2/DV8 TRAJ30 CDR3: CAYRSVPLNRDDKIIF
beta TRBV19 TRBJ1-5 CDR3: CASSKSGTGYQPQHF
B9: TCR-22 (TCR)
alpha TRAV19 TRAJ49 CDR3: CALSEALNTGNQFYF
beta TRBV3-1 TRBJ1-6 CDR3: CASSQVAYSPLHF
B10: TCR-24 (TCR)
alpha TRAV29/DV5 TRAJ48 CDR3: CAASEAGGNEKLTF
beta TRBV15 TRBJ1-5 CDR3: CATSREQAGQPQHF
B11: TCR-37-1 (TCR)
alpha TRAV5 TRAJ5 CDR3: CAESDMDMGRRALTF
beta TRBV7-3 TRBJ2-3 CDR3: CASSRRASGIGTDTQYF
B12: TCR-20 (TCR)
alpha TRAV13-1 TRAJ47 CDR3: CAAIQEYGNKLVF
beta TRBV5-5 TRBJ2-2 CDR3: CASSPRTLFTGELFF
B13: TCR-38-1 (TCR)
alpha TRAV8-6 TRAJ29 CDR3: CAVTTDSGNTPLVF
beta TRBV11-2 TRBJ2-1 CDR3: CASSPAFGEQFF
B14: TCR-19 (TCR)
alpha TRAV29/DV5 TRAJ30 CDR3: CAAMSMNRDDKIIF
beta TRBV4-1 TRBJ2-1 CDR3: CASSRLPGLAGGTVVNEQFF
B15: TCR-10 (TCR)
alpha TRAV29/DV5 TRAJ48 CDR3: CAASDENEKLTF
beta TRBV6-6 TRBJ2-1 CDR3: CASKGGGTSGYEQFF
B16: TCR-08 (TCR)
alpha TRAV19 TRAJ33 CDR3: CALSEAVDSNYQLIW
beta TRBV7-9 TRBJ1-2 CDR3: CASSLRQGPNYGYTF
B17: TCR-17 (TCR)
alpha TRAV29/DV5 TRAJ30 CDR3: CAARTGDDKIIF
beta TRBV10-3 TRBJ1-5 CDR3: CAINKQGFNQPQHF
B18: TCR-29-1 (TCR)
alpha TRAV3 TRAJ33 CDR3: CAVRRLMDSNYQLIW
beta TRBV7-6 TRBJ2-1 CDR3: CASSHGTSGSSHEQFF

For the first experiment, the target named is T1, SARS-CoV-2 N protein peptide on HLA-A*11:01 (human).
T1 peptide: ATEGALNTPK
Kind of experiment: activation reporter or marker.
With B1, the binding result is on record as “recognises”.
The same measure, in the same setting: the result for B2 reads “recognises”; that for B3, “recognises”.

A further experiment deals with T2, SARS-CoV-2 N protein peptide on HLA-A*11:01 (human).
T2 peptide: QQQQGQTVTK
As to the kind of experiment: activation reporter or marker.
Turning to B4, the binding result was “recognises”.

The target of the next experiment is SARS-CoV-2 N protein peptide on HLA-A*11:01 (human). Kind of experiment: activation reporter or marker.
As to B5, the binding result is “recognises”.
The same measure, in the same setting: the result for B6 reads “recognises”; that for B7, “recognises”.
The same measure, in the same setting: next, B8: “recognises”.
Still for that read-out and setting: next, B9: “recognises”.
Regarding B10, the binding result was “recognises”.
The same measure, in the same setting: next, B11: “recognises”.
Same read-out and setting: the result for B12 reads “recognises”.
As for B13, the binding result is recorded as “recognises”.
As to B14, the binding result was “recognises”.
Same read-out and setting: next, B15: “recognises”.
Same read-out and setting: the result for B16 reads “recognises”.
Same read-out and setting: the result for B17 reads “recognises”; that for B18, “recognises”.
